Earlier results as cited in paper PMC9458874.

Biological target: HAB1 (Arabidopsis thaliana) (UniProt Q9CAJ0)
Sequence of UniProt Q9CAJ0 (Q9CAJ0 23-511): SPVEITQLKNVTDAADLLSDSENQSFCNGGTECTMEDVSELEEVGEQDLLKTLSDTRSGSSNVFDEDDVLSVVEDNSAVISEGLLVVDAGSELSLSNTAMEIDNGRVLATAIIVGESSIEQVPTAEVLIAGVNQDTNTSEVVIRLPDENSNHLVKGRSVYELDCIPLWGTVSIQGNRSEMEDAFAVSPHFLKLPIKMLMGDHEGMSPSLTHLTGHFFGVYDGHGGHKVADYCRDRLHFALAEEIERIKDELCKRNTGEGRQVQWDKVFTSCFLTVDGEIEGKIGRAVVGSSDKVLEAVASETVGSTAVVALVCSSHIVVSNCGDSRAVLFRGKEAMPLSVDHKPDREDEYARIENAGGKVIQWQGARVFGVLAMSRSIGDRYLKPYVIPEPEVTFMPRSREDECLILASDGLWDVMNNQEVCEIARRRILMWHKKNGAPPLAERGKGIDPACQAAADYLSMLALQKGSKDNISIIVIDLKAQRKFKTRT

In the case of PYR1 (from UniProt O49686), the Kd is given as 30 nM.
